From paper PMC10720262 (Cell Reports, 2023) come the findings set out here.

The target of assay [1] is T1, NANP6 peptide (Plasmodium falciparum NF54).
T1 construct: source: synthetic peptide (CPC Scientific)
Kind of assay: SPR; Carterra LSA; mAb amine-coupled to a CMD200M chip, peptide titrated in 2-fold steps up to 8 ug/mL without regeneration; 25 C; HBSTE (10 mM HEPES pH 7.4, 150 mM NaCl, 3 mM EDTA, 0.01% Tween 20); 1:1 Langmuir model; mean of triplicates; KD includes avidity for antigens with several repeats. Particulars: both partners purified. (In general: In SPR one partner is held on a chip, and binding of the other changes the refractive index at the surface.)

In assay [2] the target is T2, recombinant full-length PfCSP (Plasmodium falciparum circumsporozoite protein, strain NF54) (Plasmodium falciparum NF54, UniProt P19597). The experiment in a line: cell-based or functional assay.
Assay [3] deals with T2, recombinant full-length PfCSP ….

T2 sequence (P19597 20-375): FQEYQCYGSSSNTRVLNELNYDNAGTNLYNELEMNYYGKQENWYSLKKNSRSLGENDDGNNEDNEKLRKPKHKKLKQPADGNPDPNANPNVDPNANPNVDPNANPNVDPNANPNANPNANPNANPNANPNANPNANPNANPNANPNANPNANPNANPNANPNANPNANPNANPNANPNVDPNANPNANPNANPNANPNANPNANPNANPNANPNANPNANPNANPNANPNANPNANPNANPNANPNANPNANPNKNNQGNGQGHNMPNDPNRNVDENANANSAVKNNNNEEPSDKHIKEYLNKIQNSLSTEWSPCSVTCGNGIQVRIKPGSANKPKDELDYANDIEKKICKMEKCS

B1: Ky315 (antibody, V domains shown)
VH: QVQLVESGGGVVQPGRSLRLSCAASGFTLSNYGVHWVRQAPGTGLEWVALIWYDGSNKFYADSVKGRFTISRDNSMDIVYLQMNNLRAEDTALYYCVRPGIAAAGSNYYAMDVWGQGTAVTVSS
VL: EIVMTQSPATLSMSPGERATLSCRASQSVGSDLAWFQQKPGQAPRLLIYGAFTRATGIPARFSGSGSGSEFTLTISSLQSEDFAVYYCQQYNRWWTFGQGTKVEMK
notes: source: CHO-3E7, purified (MabSelect SuRe LX)
Take B1: the Kd in assay [1] came out at 0.0723 nM.

B2: mAb Ky15.1 (human IgG1) (antibody, V domains shown)
VH: QVQLVESGGGVVQPGRSLRLSCAASGFTFSNFGMHWVRQTPDRGLEWVAIIWFDGSNTFYADSVKGRFTISRDNYKNTLYLQMNSLRAEDTAVYFCARSFYSDSAGSLFDYWGQGTLVTVSS
VL: DIQMTQSPSTLSASVGDRVTITCRASQSISSWVAWYQQKPGKAPKLLIYKASDLETGVPSRFSGSGSGTEFTLTISGLQPDDFVTYYCLQNMRYWTFGQGTKVEIK
As to B2, in assay [2], the other is below 1.5 µg/mL.

B3: Ky15.1 (antibody, V domains shown)
VH: QVQLVESGGGVVQPGRSLRLSCAASGFTFSNFGMHWVRQTPDRGLEWVAIIWFDGSNTFYADSVKGRFTISRDNYKNTLYLQMNSLRAEDTAVYFCARSFYSDSAGSLFDYWGQGTLVTVSS
VL: DIQMTQSPSTLSASVGDRVTITCRASQSISSWVAWYQQKPGKAPKLLIYKASDLETGVPSRFSGSGSGTEFTLTISGLQPDDFVTYYCLQNMRYWTFGQGTKVEIK
notes: as for B1
In turn, B3 yielded a Kd in assay [1] of 0.0384 nM.

B4: mAb Ky311 (human IgG1) (antibody, V domains shown)
VH: QMHLVESGGGVVQPGRSLRLSCVASGFTFNNHGMHWVRQAPGKGLEWVAVIWHDGSNKFYADSVNGRFIVSRDNSKNTLYLHMNSLRAEDTAVYYCARDFFVSGSYNYFDPWGQGTLVTVSS
VL: EIVLTQSPVTLSLSPGERATLSCRASQSVSNYLAWYQQKPGQAPRLLIYDAANRATGTPARFSGSGSGTDFTLTISSLEPEDFAVYFCQQRSKWFTFGPGTKLDIK
On to B4, for which, in assay [2], the other was below 1.5 µg/mL.

B5: Ky311 (antibody, V domains shown)
VH: QMHLVESGGGVVQPGRSLRLSCVASGFTFNNHGMHWVRQAPGKGLEWVAVIWHDGSNKFYADSVNGRFIVSRDNSKNTLYLHMNSLRAEDTAVYYCARDFFVSGSYNYFDPWGQGTLVTVSS
VL: EIVLTQSPVTLSLSPGERATLSCRASQSVSNYLAWYQQKPGQAPRLLIYDAANRATGTPARFSGSGSGTDFTLTISSLEPEDFAVYFCQQRSKWFTFGPGTKLDIK
notes: as for B1
For the molecule B5, the Kd in assay [1] was at most 0.0233 nM.

B6: Ky224 (antibody, V domains shown)
VH: QVQLVESGGGVVQPGRSLRLSCAASGFTFSVYGMHWVRQAPGKGLEWVAVIWYDGSNKIYADSVKGRFTISRDNSKNTLYLQMDSLSAADTAVYYCAKIGSSSFDYWGQGTLVIVSS
VL: DIVMTQTPLSSPVTLGQPASISCRSSQSLVHSNGITYLSWLQQRPGQPPRLLLYEISNRFSGVPDRFSGSGTGTDFTLKISRVEAEDVGVYYCMQTTQFPITFGQGTRLEIK
notes: as for B1
Molecule B6 yielded a Kd in assay [1] of 1.34 nM.

B7: CL-532151 (antibody, V domains shown)
VH: QVQLVESGGGVVQPGGSLRLSCAASGFTFSGSGMHWVRHAPGKGLEWVAIIWYDGSNKFYADSVKGRFTISRDNSRNTLYLQMNSLRAEDTAVYYCARAYVSGNYGDKYGMDVWGQGTTVTVSS
VL: DIQMTQSPSTLSASVGDRVTITCRASQSISNWLAWFQQKPGKAPKLLIYKASSLESGVPSRFSGSGSGTEFTLTINSLQPDDFATYFCQQYNYYWTFGQGTKVEIK
As for B7, the binding result in assay [3] is “binds”.

B8: Ky15.5 (antibody, V domains shown)
VH: QVQMVASGGGVVQPGRSLRLSCAVSGFTFRNFGMHWVRQDPGRGLEWVAIIWYDGSYEFYADSVKGRFTISRDNSKNTLYLQMNSLRAEDTAVYYCARSYGSLTGDETKYGMDVWGQGTTVTVSS
VL: DIQMTQSPSTLSASVGDRVTITCRASQSISSWLAWFQQKPGKAPKLLIYKASSLESGVPSRFSGSGSGTEFTLTISSLQPDDFATYYCQQYKNYWTFGQGTKVEIK
notes: as for B1
In assay [1], B8 gave a Kd of at most 0.0369 nM.

B9: Ky15.2 (antibody, V domains shown)
VH: QVLLVESGGGVVQPGTSLRLSCVASGFSFSTYGMHWVRQSPGKGLEWVAIIWYDGGNKFYADSVQGRFTVSRDNSKNTLYLQMNSLRAEDTAVYYCAKAYRTSLDKKYGMDVWGQGTTVTVSS
VL: DIQMTQSPSTLSASVGDRVTITCRASQSIASWLAWYQQKPGKAPKLLIYKASSLESGVPSRFSGSGSGTEFTLTISSLHPDDFATYFCQQFTSYWTFGQGTKVEIK
notes: as for B1
As for B9, in assay [1], the Kd was 0.0713 nM.

B10: Ky15.10 (antibody, V domains shown)
VH: QVQLVESGGGVVQPGRSLRLSCAASGFTFSNSGMHWVRQVPGKGLEWVAIIWYDGSNKYYADSVKGRFSVSRDNSENTLYLQMSNLRAEDTAVYYCVRAYFDSENLYDYYGMDVWGQGTTVTVSS
VL: DIQMTQSPSTLSASVGDRVTITCRASQSISRWLAWFQKKPGKAPKLLIYTASNLESGVPSRFSGSGSGTEFTLTISSLQPDDFATYYCQQYYNYWTFGQGTKVEVK
notes: as for B1
In assay [1], B10 registered a Kd of 0.0153 nM.

B11: Ky15.11 (antibody, V domains shown)
VH: QVQLVESGGGVVQPGRSLRLSCEASGFTFSNFGMHWVRQTPVKGLEWVAIIWFDGSYKYYTDSVKGRFTISRDNSKNTLYLQMNSLRAEDTAVYYCARARKGQRSDYYGSETSYTFDNWGQGTLVTVSS
VL: DIQMTQSPSTLSASVGDRVTITCRASQSINGWLAWYQQKPGKAPKFLIYKASILESGIPSRFSGSGSGTEFTLTISSLQPDDFATYYCQQYSSYWTFGQGTKVEIK
notes: as for B1
The molecule B11 showed a Kd in assay [1] of at most 0.0357 nM.

B12: Ky15.7 (antibody, V domains shown)
VH: QVQVVESGGGAVQPGRSLRLSCAASGFTFSNRGMHWVRQTPGKGLEWVAIIWYDGGNKFYADSVKGRFTISRDNSKNTLYLQMNSLRDEDTAVYYCVRAGDWKADKYTMDVWGQGTTVTVSS
VL: DIQMTQSPSTLSASVGDRVTITCRASQSISSWLAWYQQKPGKAPKVLIYQASSLESGVPSRFSGSGSGTEFTLTISSLQPDDFATYYCQQYNSYWTFGQGTKVEIK
notes: as for B1
As to B12, the Kd in assay [1] came out at 0.113 nM.

B13: Ky15.8 (antibody, V domains shown)
VH: QVQLVESGGNVVQPGRSLRLSCTASGFTFSSYGMHWVRQAPDKGLEWVAIIWYDGGNKFYADSVKGRFTISRDNSKDTLYLQMNSLRAEDTAVYYCAKAWYKIDDKYSMDVWGQGTTVTVSS
VL: not shown
notes: as for B1
In the case of B13, the Kd in assay [1] is at most 0.0312 nM.

B14: Ky15.3 (antibody, V domains shown)
VH: QVQLVESGGGVVQPGRSLRLSCVASGFTFSNAGMHWVRQTPGKGLEWVAIIWYDGSIKYYGESVKGRFTISRDNSKNTLYLEMSSLRAEDTAVYFCVRAYSGSLYDKYGMDVWGQGTTVIVSS
VL: DIQMTQSPSTLSASVGDRVTISCRASQTISTWLAWFQQKPGKAPKLLIYAASSLQSGVPSRFSGSGSGTDFTLTISNLQPDDFATYYCQQFNSYWTFGQGTKVEIK
notes: as for B1
With B14, in assay [1], the Kd is at most 0.0174 nM.

B15: mAb Ky230 (human IgG1) (antibody, V domains shown)
VH: QVQLVESGGGVVQPGRSLRLSCAASGFTFSDYGMHWVRQAPGKGLEWVAIIWHDGSNKYYVDSVKGRFTISRDNSKNTLYLQMNSLRAEDTAVYYCARAASSFGSGFDYWGQGTLVTVSS
VL: DVVMTQSPLSLPVTLGQPASIFCRSSQSLVYSDGNTYLNWFQRRPGQSPRRLIYKVSDRDSGVPDRFSGSGSGTDFTLQISRVEAEDVGVYYCMQGTHWPPTFGQGTKVEIK
As to B15, in assay [2], the other is below 1.5 µg/mL.

B16: Ky230 (antibody, V domains shown)
VH: QVQLVESGGGVVQPGRSLRLSCAASGFTFSDYGMHWVRQAPGKGLEWVAIIWHDGSNKYYVDSVKGRFTISRDNSKNTLYLQMNSLRAEDTAVYYCARAASSFGSGFDYWGQGTLVTVSS
VL: DVVMTQSPLSLPVTLGQPASIFCRSSQSLVYSDGNTYLNWFQRRPGQSPRRLIYKVSDRDSGVPDRFSGSGSGTDFTLQISRVEAEDVGVYYCMQGTHWPPTFGQGTKVEIK
notes: as for B1
For B16, in assay [1], the Kd is 0.257 nM.
